In patent US12012599B2, “Compositions and methods for modulating left-right differentiation factor (LEFTY) and bone morphogenic factor (BMP)” (CZ Biohub SF LLC, priority 2018, dated 2024):
Like-named read-outs stand apart in the source and are kept apart here.

How the values were obtained:
pSMAD5 activation = assay: pGL3 BRE-luciferase reporter in 3T3-L1 fibroblasts; format: cell-based; conditions: 16 hours
Experimental: FIGS. 7A-7E. LEFTY1 interaction with BMPR2 inhibits the phosphorylation of SMAD5. […] Ten different fields were counted per condition (n=3). […] 48 hours after transfection, cells were washed and incubated with different concentrations of BMP7 (from 0-800 ng/ml) for 16 hours prior to collection of the cells. […] 48 hours after transfection, cells were washed and incubated with different concentrations of LEFTY1 (from 0-200 ng/ml) for 16 hours prior to collection of the cells. […] 48 hours after transfection, cells were washed and incubated with different concentrations of BMP7 and LEFTY1 at the indicated concentrations for 16 hours prior to collection of the cells. Data are represented as median±S.D. Statistical analysis, one-way ANOVA with Dunnet's adjustment, *p<0.05; **p<0.01; ****p<0.0001.
FIGS. 7F-7I: pSMAD5 activation in the presence of LEFTY1, BMP2 and BMP4. […] 48 hours after transfection, cells were washed and incubated with different concentrations of BMP2 (from 0-800 ng/ml) for 16 hours prior to collection of the cells. […] 48 hours after transfection, cells were washed and incubated with different concentrations of BMP2 and LEFTY1 for 16 hours prior to collection of the cells. FIG. 7H and FIG. 7I show 3T3-L1 fibroblasts transfected with pGL3 BRE-luciferase plasmid. […]
We also evaluated whether LEFTY1 could inhibit pSMAD5 activation induced by other BMPs. […]

BMPR2 = assay: In situ target-mediated (proximity) ligation assay, BMPR2; format: binding
From the text: FIGS. 5A-5H. LEFTY1 inhibits pSMAD2 and pSMAD5 in the basal mammary epithelial cells. […] KRT8 was used to stain the luminal cells and SMA for basal cells (Magnification 400×). […] Gapdh was used as a housekeeping gene. […] Ten different fields were counted per condition (n=3). Data are represented as median±S.D. Statistical analysis, (a and b) Student's T-test, * p<0.05; (h) One-way ANOVA with Dunnet's adjustment, ****p<0.0001.
FIGS. 5I-5J: LEFTY1 preferentially interacts with BMPR2. […] BMP7-BMPR2 interaction was used as a positive control, and mouse and rabbit IgGs were used as technical negative controls. The interaction of LEFTY with Wnt receptor LRP6 was analyzed as a biological negative control. […] Data are represented as median±S.D. Statistical analysis, one-way ANOVA post-hoc Tukey multiple comparison, ****p<0.0001, ***p<0.001; unless stated analysis is non-significant with p>0.05.
Since BMPR2 is upstream of pSMAD1/5/8, we reasoned that BMPR2 could serve as a common BMP Type II receptor that mediates the BMP7/LEFTY1 axis. […] The interaction between BMP7 and BMPR2 was used as a positive control (p<0.0001) (FIG. 5G-5H and FIG. 7B).
Next, we assessed the interaction of LEFTY with different type I and type II TGF-β receptors. […] We also analyzed the interaction of LEFTY with Wnt receptor LRP6 as a biological negative control. […]

- inhibition of pSMAD5 activation induced by BMP2 or BMP4 (pSMAD5 activation): less of an inhibitory effect
B1: LEFTY1: left-right determination factor 1, secreted TGF-β superfamily protein; generic LEFTY may mean LEFTY1 or LEFTY2 (protein, UniProt O75610 77-366, looked up)
Left-right determination …: RFSQSFREVAGRFLALEASTHLLVFGMEQRLPPNSELVQAVLRLFQEPVPKAALHRHGRLSPRSARARVTVEWLRVRDDGSNRTSLIDSRLVSVHESGWKAFDVTEAVNFWQQLSRPRQPLLLQVSVQREHLGPLASGAHKLVRFASQGAPAGLGEPQLELHTLDLGDYGAQGDCDPEAPMTEGTRCCRQEMYIDLQGMKWAENWVLEPPGFLAYECVGTCRQPPEALAFKWPFLGPRQCIASETDSLPMIVSIKEGGRTRPQVVSLPNMRVQKCSCASDGALVPRRLQP
- inhibition of BMP7-mediated pSMAD5 activation (pSMAD5 activation): inhibit BMP7-mediated pSMAD5 activation in a dose-dependent fashion
- protein interaction with BMPR2 (BMPR2): significant protein interaction
- protein interaction with BMPR2 (BMPR2; listed as LEFTY): interacted preferentially
